Measured values from the Immune Epitope Database (IEDB).

Legend:
[1] = biological target: HLA-B*40:02; test: IEDB peptide-MHC binding, purified MHC/competitive/radioactivity; filed as Kd, often an IC50 or EC50 that approximates it; ≥ and ≤ were set here for values at or beyond the usual limits of such assays
[2] = biological target: HLA-B*44:02; test: as above
[3] = biological target: HLA-B*45:01; test: as above
[4] = biological target: HLA-B*44:03; test: as above
[5] = biological target: HLA-B*40:01; test: as above
[6] = biological target: HLA-B*18:01; test: as above
[7] = biological target: HLA-A*03:01; test: IEDB peptide-MHC binding, purified MHC/competitive/fluorescence; filed as Kd, often an IC50 or EC50 that approximates it; ≥ and ≤ were set here for values at or beyond the usual limits of such assays
[8] = biological target: HLA-A*03:01; test: IEDB peptide-MHC binding, purified MHC/direct/fluorescence; filed as Kd, often an IC50 or EC50 that approximates it; ≥ and ≤ were set here for values at or beyond the usual limits of such assays; conditions: source organism: Reston ebolavirus - Reston
[9] = biological target: HLA-B*51:01; test: IEDB peptide-MHC binding, purified MHC/competitive/fluorescence; filed as Kd, often an IC50 or EC50 that approximates it; ≥ and ≤ were set here for values at or beyond the usual limits of such assays; conditions: source organism: Reston ebolavirus
[10] = biological target: HLA-B*57:01; test: as above; conditions: source organism: Reston ebolavirus
[11] = biological target: HLA-B*46:01; test: as above; conditions: source organism: Reston ebolavirus
[12] = biological target: HLA-B*27:03; test: as above; conditions: source organism: Reston ebolavirus
[13] = biological target: HLA-A*26:01; test: as above; conditions: source organism: Reston ebolavirus
[14] = biological target: HLA-B*15:01; test: as above
[15] = biological target: HLA-B*39:01; test: as above; conditions: source organism: Reston ebolavirus
[16] = biological target: HLA-B*18:01; test: as above; conditions: source organism: Reston ebolavirus
[17] = biological target: HLA-A*02:01; test: as above; conditions: source organism: Reston ebolavirus
[18] = biological target: HLA-A*69:01; test: as above; conditions: source organism: Reston ebolavirus
[19] = biological target: HLA-B*15:03; test: IEDB peptide-MHC binding, purified MHC/competitive/radioactivity; filed as Kd, often an IC50 or EC50 that approximates it; ≥ and ≤ were set here for values at or beyond the usual limits of such assays; conditions: source organism: Vaccinia virus WR
[20] = biological target: HLA-B*51:01; test: as above; conditions: source organism: Hepacivirus hominis
[21] = biological target: HLA-A*03:01; test: as above; conditions: source organism: Hepacivirus hominis
[22] = biological target: HLA-A*11:01; test: as above; conditions: source organism: Hepacivirus hominis
[23] = biological target: HLA-A*68:01; test: as above; conditions: source organism: Hepacivirus hominis
[24] = biological target: HLA-B*54:01; test: as above; conditions: source organism: Hepacivirus hominis
[25] = biological target: HLA-B*07:02; test: as above; conditions: source organism: Hepacivirus hominis
[26] = biological target: HLA-A*02:03; test: as above; conditions: source organism: Hepacivirus hominis
[27] = biological target: HLA-A*02:06; test: as above; conditions: source organism: Hepacivirus hominis
[28] = biological target: HLA-A*31:01; test: as above; conditions: source organism: Hepacivirus hominis
[29] = biological target: HLA-A*01:01; test: as above; conditions: source organism: Hepacivirus hominis
[30] = biological target: HLA-A*33:01; test: as above; conditions: source organism: Hepacivirus hominis
[31] = biological target: HLA-B*53:01; test: as above; conditions: source organism: Hepacivirus hominis
[32] = biological target: HLA-B*08:01; test: as above; conditions: source organism: Hepacivirus hominis
[33] = biological target: HLA-A*02:01; test: as above; conditions: source organism: Hepacivirus hominis
[34] = biological target: HLA-A*68:02; test: as above; conditions: source organism: Hepacivirus hominis
[35] = biological target: HLA-A*02:02; test: as above; conditions: source organism: Hepacivirus hominis
[36] = biological target: HLA-B*35:01; test: as above; conditions: source organism: Hepacivirus hominis
[37] = source organism: Mammarenavirus guanaritoense
[38] = source organism: SARS coronavirus Tor2
[39] = source organism: Mammarenavirus machupoense
[40] = source organism: Mammarenavirus lassaense
[41] = source organism: Mammarenavirus whitewaterense
[42] = source organism: Giardia lamblia ATCC 50803
[43] = source organism: Mammarenavirus choriomeningitidis
[44] = source organism: Shigella flexneri 5 str. 8401
[45] = source organism: Hepacivirus hominis
[46] = source organism: Lymphocytic choriomeningitis virus (strain Armstrong)

Sequence: ADSLDFTQV
- Kd [1, 37]: 5.85 µM
- Kd [2, 37]: 12.6 µM
- Kd [3, 37]: 6.12 µM
- Kd [4, 37]: ≥ 33.3 µM
- Kd [5, 37]: ≥ 64.9 µM
- Kd [6, 37]: ≥ 66.5 µM

Sequence: AEIRASANLA
- Kd [1, 38]: 2.25 µM
- Kd [2, 38]: 0.0801 µM
- Kd [3, 38]: 0.00463 µM
- Kd [4, 38]: 0.0986 µM
- Kd [5, 38]: 0.202 µM
- Kd [6, 38]: 8.13 µM

Sequence: ALTSAMLDR
- Kd ([7]; source organism: Yersinia pestis Antiqua): 0.0381 µM

Sequence: ALYEENALK
- Kd [8]: 1.84 µM
- Kd [9]: ≥ 20 µM
- Kd [10]: ≥ 20 µM
- Kd [11]: ≥ 20 µM
- Kd [12]: ≥ 20 µM
- Kd [13]: ≥ 20 µM
- Kd ([14]; source organism: Reston ebolavirus): ≥ 20 µM
- Kd [15]: ≥ 20 µM
- Kd [16]: ≥ 20 µM
- Kd [17]: ≥ 20 µM
- Kd [18]: ≥ 20 µM

Sequence: EDIAMGYVV
- Kd [1, 39]: 0.0698 µM
- Kd [2, 39]: 10.3 µM
- Kd [3, 39]: 2.26 µM
- Kd [4, 39]: ≥ 38.4 µM
- Kd [5, 39]: ≥ 45.3 µM
- Kd [6, 39]: 1.5 µM

Sequence: FELTSMKYF
- Kd [1, 38]: 2.32 µM
- Kd [2, 38]: 0.0927 µM
- Kd [3, 38]: ≥ 33.9 µM
- Kd [4, 38]: 0.161 µM
- Kd [5, 38]: 10.7 µM
- Kd [6, 38]: 3.72 µM

Sequence: FISRNKNIF
- Kd [19]: 4.03 µM

Sequence: FKVTTRRSI
- Kd [19]: 0.00457 µM

Sequence: IEEIMNIVLI
- Kd [1, 40]: 0.0984 µM
- Kd [2, 40]: 0.151 µM
- Kd [3, 40]: 1.3 µM
- Kd [4, 40]: 0.445 µM
- Kd [5, 40]: 1.81 µM
- Kd [6, 40]: 3.15 µM

Sequence: KELSPRWYFY
- Kd [1, 38]: 0.309 µM
- Kd [2, 38]: 0.00979 µM
- Kd [3, 38]: 4.23 µM
- Kd [4, 38]: 0.0126 µM
- Kd [5, 38]: 8.57 µM
- Kd [6, 38]: 6.75 µM

Sequence: LDIQKCGEL
- Kd [1, 41]: 9.66 µM
- Kd [2, 41]: ≥ 77.9 µM
- Kd [3, 41]: ≥ 56.9 µM
- Kd [4, 41]: ≥ 78.1 µM
- Kd [5, 41]: ≥ 46.7 µM
- Kd [6, 41]: ≥ 53.2 µM

Sequence: LMLASSAGH
- Kd [7, 42]: 0.559 µM

Sequence: LMLASSAGK
- Kd [7, 42]: 0.0078 µM

Sequence: NDSILSHNF
- Kd [1, 43]: 5.93 µM
- Kd [2, 43]: 0.182 µM
- Kd [3, 43]: ≥ 77.7 µM
- Kd [4, 43]: 11.4 µM
- Kd [5, 43]: ≥ 76.1 µM
- Kd [6, 43]: 0.423 µM

Sequence: NELQTLPSL
- Kd [7, 44]: ≥ 20 µM
- Kd [14, 44]: ≥ 20 µM

Sequence: PEFDWILGW
- Kd [1, 37]: ≥ 22 µM
- Kd [2, 37]: 0.212 µM
- Kd [3, 37]: ≥ 77.7 µM
- Kd [4, 37]: 0.0274 µM
- Kd [5, 37]: ≥ 76.1 µM
- Kd [6, 37]: 5.12 µM

Sequence: RDLVISDSS
- Kd [1, 37]: 2.49 µM
- Kd [2, 37]: ≥ 77.9 µM
- Kd [3, 37]: ≥ 77.7 µM
- Kd [4, 37]: ≥ 35.8 µM
- Kd [5, 37]: ≥ 53.4 µM
- Kd [6, 37]: ≥ 77.5 µM

Sequence: RDWAHNSL
- Kd [20]: ≥ 87.3 µM
- Kd [21]: ≥ 87.3 µM
- Kd [22]: ≥ 87 µM
- Kd [23]: ≥ 87.9 µM
- Kd [24]: ≥ 87.7 µM
- Kd [25]: 5.68 µM
- Kd [26]: ≥ 70.4 µM
- Kd [1, 45]: ≥ 89.5 µM
- Kd [27]: ≥ 55.7 µM
- Kd [2, 45]: ≥ 75.4 µM
- Kd [4, 45]: ≥ 87.2 µM
- Kd [28]: ≥ 67.1 µM
- Kd [5, 45]: ≥ 88.9 µM
- Kd [29]: 1.8 µM
- Kd [30]: ≥ 78.4 µM
- Kd [31]: ≥ 87.7 µM
- Kd [32]: ≥ 83.4 µM
- Kd [6, 45]: ≥ 88.6 µM
- Kd [33]: ≥ 69.4 µM
- Kd [34]: ≥ 69.8 µM
- Kd [35]: ≥ 70 µM
- Kd [36]: ≥ 87.8 µM

Sequence: REPVDQKQF
- Kd [1, 46]: 11.9 µM
- Kd [2, 46]: 1.63 µM
- Kd [3, 46]: ≥ 77.7 µM
- Kd [4, 46]: 7.92 µM
- Kd [5, 46]: ≥ 40.5 µM
- Kd [6, 46]: ≥ 47.6 µM

Sequence: SEILKTLGF
- Kd [1, 39]: 0.165 µM
- Kd [2, 39]: 0.00421 µM
- Kd [3, 39]: 1.61 µM
- Kd [4, 39]: 0.0141 µM
- Kd [5, 39]: 1 µM
- Kd [6, 39]: 0.655 µM

Sequence: SEMVMCGGSL
- Kd [1, 38]: 1.02 µM
- Kd [2, 38]: 0.00224 µM
- Kd [3, 38]: 0.0163 µM
- Kd [4, 38]: 0.0123 µM
- Kd [5, 38]: 0.000475 µM
- Kd [6, 38]: 0.355 µM

Sequence: TERLKLFAA
- Kd [1, 38]: 0.024 µM
- Kd [2, 38]: ≥ 65.8 µM
- Kd [3, 38]: 0.00473 µM
- Kd [4, 38]: ≥ 41.2 µM
- Kd [5, 38]: 19.2 µM
- Kd [6, 38]: 0.301 µM

Sequence: VELVAEMDG
- Kd [1, 38]: ≥ 77.3 µM
- Kd [2, 38]: 10.6 µM
- Kd [3, 38]: ≥ 29.4 µM
- Kd [4, 38]: ≥ 24.5 µM
- Kd [5, 38]: ≥ 76.2 µM
- Kd [6, 38]: ≥ 28.3 µM

Sequence: VEYPIIGDEL
- Kd [1, 38]: 0.5 µM
- Kd [2, 38]: 4.81 µM
- Kd [3, 38]: 2.23 µM
- Kd [4, 38]: 0.282 µM
- Kd [5, 38]: 0.00504 µM
- Kd [6, 38]: 15.2 µM

Sequence: WEIQQVVDA
- Kd [1, 38]: 0.0543 µM
- Kd [2, 38]: ≥ 30.3 µM
- Kd [3, 38]: 0.135 µM
- Kd [4, 38]: 9.04 µM
- Kd [5, 38]: 1.03 µM
- Kd [6, 38]: 4.92 µM
